According to paper PMC7031079, “ATBS1-INTERACTING FACTOR 2 negatively regulates dark- and brassinosteroid-induced leaf senescence through interactions with INDUCER OF CBF EXPRESSION 1” (Journal of Experimental Botany, 2019):

Target: T1, ICE1FL-myc (Arabidopsis thaliana, UniProt Q9LSE2 1-494)
T1 sequence (looked up): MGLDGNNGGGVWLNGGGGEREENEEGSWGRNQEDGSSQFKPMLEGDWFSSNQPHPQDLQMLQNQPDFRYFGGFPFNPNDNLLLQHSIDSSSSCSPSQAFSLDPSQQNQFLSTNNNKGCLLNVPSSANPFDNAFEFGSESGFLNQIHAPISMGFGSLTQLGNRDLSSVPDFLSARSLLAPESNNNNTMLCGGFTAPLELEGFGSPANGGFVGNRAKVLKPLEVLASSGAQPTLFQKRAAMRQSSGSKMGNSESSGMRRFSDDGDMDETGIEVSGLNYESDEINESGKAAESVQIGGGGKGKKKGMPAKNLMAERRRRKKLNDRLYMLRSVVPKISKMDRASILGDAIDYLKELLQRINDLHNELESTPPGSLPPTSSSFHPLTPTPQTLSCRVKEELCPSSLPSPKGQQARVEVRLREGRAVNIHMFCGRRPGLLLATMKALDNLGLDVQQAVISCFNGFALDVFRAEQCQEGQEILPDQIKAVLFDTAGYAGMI
Experiment: cell-based or functional assay

pCBF2::Luc reporter expression in tobacco leaves on co-expression of full-length AIF2 (p35S::AIF2FL-EGFP) and ICE1 (p35S::ICE1FL-EGFP), against the non-transformed mock control: ~5 fold
B1: AIF2FL-nYFP (natural protein, Arabidopsis thaliana, UniProt Q9C8Z9 1-221, looked up)
chain: MASLISDIEPPTSTTSDLVRRKKRSSASSAASSRSSASSVSGEIHARWRSEKQQRIYSAKLFQALQQVRLNSSASTSSSPTAQKRGKAVREAADRALAVSARGRTLWSRAILANRIKLKFRKQRRPRATMAIPAMTTVVSSSSNRSRKRRVSVLRLNKKSIPDVNRKVRVLGRLVPGCGKQSVPVILEEATDYIQALEMQVRAMNSLVQLLSSYGSAPPPI
